B1: Azoarcus group I ribozyme (parent)
chain: GUGCCUUGCGCCGGGAAACCACGCAAGGGAUGGUGUCAAAUUCGGCGAAACCUAAGCGCCCGCCCGGGCGUAUGGCAACGCCGAGCCAAGCUUCGGCGCCUGCGCCGAUGAAGGUGUAGAGACUAGACGGCACCCACCUAAGGCAAACGCUAUGGUGAAGGCAUAGUCCAGGGAGUGGCGAAAGUCACACAAACCGG

Variants of: B1
Test: reverse-splicing fitness (ratio to wild type); higher = more active; in vitro selection; Mg2+ level not given
In short: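 An in vitro group I ribozyme library with randomized positions was T7-transcribed and gel-purified. In triplicate, 10 pmol RNA in EPPS pH 7.5 was reacted with 50 pmoles of a 30-nt RNA substrate for 1 h at 37 °C across several added MgCl2 levels (1–48 mM), then stopped with EDTA. Products were reverse transcribed from a substrate-complementary primer, PCR-amplified and sequenced (HiSeq 4000). Fitness is a variant's read proportion after selection over that before, normalised to wild type.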

Variant | reverse-splicing fitness
C82G A111U A120C A145G C150G C169G U176C | 0.0139
C82G A111U A120C A145G C150G C169G U176G | 0.00661
C82G A111U A120C A145G C150G C169G U176A | 0.0117
C82G A111U A120C A145G C150A C169U | 0.0121
C82G A111U A120C A145G C150A C169G | 0.00949
C82G A111U A120C A145G C150A C169A | 0.0113
C82G A111G C150U C169U U176C | 0.0172
C82G A111G C150U C169U U176G | 0.00785
C82G A111G C150U C169U U176A | 0.0147
C82G A111U A120C A145C C150U C169A U176G | 0.00651
C82G A111U A120C A145C C150U C169A U176A | 0.0164
C82G A111U A120C A145C C150U C169A U176C | 0.0115
C82G A111U A120C A145C C150A U176A | 0.0111
C82G A111U A120C A145C C150A U176G | 0.0066
C82G A111U A120C A145C C150A U176C | 0.0127
C82G A111U A120C A145C C150G C169G | 0.00735
C82G A111U A120C A145C C150G C169U | 0.00834
C82G A111U A120C A145C C150G C169A | 0.0104
C82G A111U A120C A145G C150A | 0.0162
C82G A111U A120C A145G C150U | 0.0415
C82G A111U A120C A145G C150G | 0.0114

Variant | reverse-splicing fitness
C82G A111U A120C A145C C150U C169U | 0.0113
C82G A111U A120C A145C C150U C169A | 0.00911
C82G A111U A120C A145C C150U C169G | 0.00854
C82G A111G C169G U176G | 0.0047
C82G A111G C169G U176C | 0.0239
C82G A111G C169G U176A | 0.0197
C82G A111U A120C A145G C150G C169U U176G | 0.00871
C82G A111U A120C A145G C150G C169U U176A | 0.0139
C82G A111U A120C A145G C150G C169U U176C | 0.0123
C82G A111U A120C A145C C169U | 0.0119
C82G A111U A120C A145C C169A | 0.00886
C82G A111U A120C A145C C169G | 0.00986
C82G A111U A120C A145G C169G U176G | 0.00543
C82G A111U A120C A145G C169G U176C | 0.0281
C82G A111U A120C A145G C169G U176A | 0.0187
C82G A111G C150U C169G U176C | 0.0201
C82G A111G C150U C169G U176G | 0.00611
C82G A111G C150U C169G U176A | 0.0165
C82G A111U A120C A145C C169G U176G | 0.00667
C82G A111U A120C A145C C169G U176A | 0.0301
C82G A111U A120C A145C C169G U176C | 0.0236

Variant | reverse-splicing fitness
C82G A111U A120C A145C C150U U176G | 0.00601
C82G A111U A120C A145C C150U U176C | 0.0178
C82G A111U A120C A145C C150U U176A | 0.0111
C82G A111U A120C A145G C150U C169U U176C | 0.0146
C82G A111U A120C A145G C150U C169U U176A | 0.0137
C82G A111U A120C A145G C150U C169U U176G | 0.00687
C82G A111U A120C A145C C169U U176G | 0.00455
C82G A111U A120C A145C C169U U176C | 0.0128
C82G A111U A120C A145C C169U U176A | 0.0148
C82G A111U A120C A145C C150G C169G U176C | 0.00909
C82G A111U A120C A145C C150G C169G U176G | 0.00606
C82G A111U A120C A145C C150G C169G U176A | 0.0106
C82G A111G C169G | 0.00859
C82G A111G C169A | 0.00879
C82G A111G C169U | 0.0143
C82G A111G C150U C169A U176A | 0.0173
C82G A111G C150U C169A U176G | 0.00685
C82G A111G C150U C169A U176C | 0.0178
C82G A111U A120C A145G C169A | 0.0109
C82G A111U A120C A145G C169G | 0.00963
C82G A111U A120C A145G C169U | 0.0141

Variant | reverse-splicing fitness
C82G A111U A120C A145C C150A C169U U176G | 0.00605
C82G A111U A120C A145C C150A C169U U176A | 0.0126
C82G A111U A120C A145C C150A C169U U176C | 0.0105
C82G A111G C169U U176A | 0.0155
C82G A111G C169U U176C | 0.0177
C82G A111G C169U U176G | 0.00625
C82G A111U A120C A145G C150A C169U U176C | 0.0159
C82G A111U A120C A145G C150A C169U U176A | 0.0148
C82G A111U A120C A145G C150A C169U U176G | 0.00802
C82G A111U A120C A145C U176C | 0.0234
C82G A111U A120C A145C U176A | 0.0155
C82G A111U A120C A145C U176G | 0.00674
C82G A111U | 0.387
C82G A111U A120C A145U C150A C169A | 0.0103
C82G A111U A120C A145U C150A C169G | 0.00901
C82G A111U A120C A145G C150U C169G U176A | 0.0154
C82G A111U A120C A145G C150U C169G U176C | 0.0196
C82G A111U A120C A145G C150U C169G U176G | 0.00632
C82G A111U A120C A145G C150A C169G U176G | 0.00823
C82G A111U A120C A145G C150A C169G U176C | 0.0297
C82G A111U A120C A145G C150A C169G U176A | 0.0181

From the RNAGym collection of RNA variant scans (doi:10.1093/molbev/msab373)
